The values that follow come from doi:10.1101/2021.01.21.427698.

The experiment has as its target T1, human SEPT2 with a TEV-cleavable N-terminal His6-tag (human), Q15019.
T1 chain: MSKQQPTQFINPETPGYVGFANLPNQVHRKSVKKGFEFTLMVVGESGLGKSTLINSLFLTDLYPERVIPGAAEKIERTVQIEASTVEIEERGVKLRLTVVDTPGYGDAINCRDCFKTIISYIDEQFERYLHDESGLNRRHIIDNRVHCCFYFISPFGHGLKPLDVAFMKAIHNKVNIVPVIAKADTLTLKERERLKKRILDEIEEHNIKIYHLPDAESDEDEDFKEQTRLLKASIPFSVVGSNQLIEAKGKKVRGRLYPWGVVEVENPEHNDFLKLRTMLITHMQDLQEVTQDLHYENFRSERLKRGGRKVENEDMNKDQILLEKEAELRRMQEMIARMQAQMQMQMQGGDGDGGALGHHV
As to conditions: remark: other sources report otherwise.

B1: full-length human SEPT7 (untagged, as in the octamers), Q16181 1-437 (natural protein)
chain: MSVSARSAAAEERSVNSSTMVAQQKNLEGYVGFANLPNQVYRKSVKRGFEFTLMVVGESGLGKSTLINSLFLTDLYSPEYPGPSHRIKKTVQVEQSKVLIKEGGVQLLLTIVDTPGFGDAVDNSNCWQPVIDYIDSKFEDYLNAESRVNRRQMPDNRVQCCLYFIAPSGHGLKPLDIEFMKRLHEKVNIIPLIAKADTLTPEECQQFKKQIMKEIQEHKIKIYEFPETDDEEENKLVKKIKDRLPLAVVGSNTIIEVNGKRVRGRQYPWGVAEVENGEHCDFTILRNMLIRTHMQDLKDVTNNVHYENYRSRKLAAVTYNGVDNNKNKGQLTKSPLAQMEEERREHVAKMKKMEMEMEQVFEMKVKEKVQKLKDSEAELQRRHEQMKKNLEAQHKELEEKRRQFEDEKANWEAQQRILEQQNSSRTLEKNKKKGKIF
The stoichiometry N is the number of molecules, sites or subunits per partner or assembly. Consider B1, for which the stoichiometry N worked out at 1.
